Earlier results, collected in PMC3575409, “Identification of a Novel Protein-Protein Interaction Motif Mediating Interaction of GPCR-Associated Sorting Proteins with G Protein-Coupled Receptors” (PLoS ONE, 2013).

System: GST-fused ADRB1 C-tail
Details: truncated form of GASP-1, amino-acids 898 to 1395; ref [10]; cited from earlier work
Description: This discrepancy is most likely due to the fact that we used full-length GASPs to perform our experiments, while Heydorn and collaborators used a truncated form of GASP-1, corresponding to amino-acids 898 to 1395. When we performed GST-pull down experiments with a similar fragment of GASP-1 (corresponding to amino acids 924 to 1395), only 5% ...

B1: amino-acids 898 to 1395: truncated form of GASP-1 used by Heydorn and collaborators (protein, UniProt Q5JY77 898-1395, looked up, fragment)
chain: ESETEEETIFGSWFWDGKEVSEEAGPCCVSKPEDDEEMIVESWFWSRDKAIKETGTVATCESKPENEEGAIVGSWFEAEDEVDNRTDNGSNCGSRTLADEDEAIVGSWFWAGDEAHFESNPSPVFRAICRSTCSVEQEPDPSRRPQSWEEVTVQFKPGPWGRVGFPSISPFRFPKEAASLFCEMFGGKPRNMVLSPEGEDQESLLQPDQPSPEFPFQYDPSYRSVQEIREHLRAKESTEPESSSCNCIQCELKIGSEEFEELLLLMEKIRDPFIHEISKIAMGMRSASQFTRDFIRDSGVVSLIETLLNYPSSRVRTSFLENMIRMAPPYPNLNIIQTYICKVCEETLAYSVDSPEQLSGIRMIRHLTTTTDYHTLVANYMSGFLSLLATGNAKTRFHVLKMLLNLSENLFMTKELLSAEAVSEFIGLFNREETNDNIQIVLAIFENIGNNIKKETVFSDDDFNIEPLISAFHKVEKFAKELQGKTDNQNDPEGDQEN
  interaction of GASP-1 with ADRB1 C-tail: low interaction
